Reference: the supplement of paper PMC7877785
± gives the uncertainty stated by the source.

Experiment: self-splicing fitness, log relative to wild type (ln ratio); higher = more splicing; Tetrahymena group I intron in knt gene, E. coli kanamycin selection, DiMSum; sequences stand for … in CUCUCU…GGAGGGAAAAGUUAUCAGGCAUGCACCUGGUAGCUAGUCUUUAAACCAAUAGAUUGCAUCGGUUUAAAAGGCAAGACCGUCAAAUUGCGGGAAAGGGGUCAACAGCCGUUCAGUACCAAGUCUCAGGGGAAACUUUGAGAUGGCCUUGCAAAGGGUAUGGUAAUAAGCUGACGGACAUGGUCCUAACCACGCAGCCAAGUCCUAAGUCAACAGAUCUUCUGUUGAUAUGGAUGCAGUUCACAGACUAAAUGUCGGUCGGGGAAGAUGUAUUCUUCUCAUAAGAUAUAGUCGGACCUCUCCUUAAUGGGAGCUAGCGGAUGAAGUGAUGCAACACUGGAGCCGCUGGGAACUAAUUUGUAUGCGAAAGUAUAUUGAUUAGUUUUGGAGUACUCGUGGUCG
How it was run: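 Library with all eight P1ex-region intron nucleotides randomised, intron inside the knt kanamycin-resistance gene on pET-22b(+), in E. coli BL21(DE3). Cells grew overnight at 37°C or 30°C on LB agar with or without 25 μg/mL kanamycin (plus 100 μg/mL carbenicillin, 50 μM IPTG, 0.2% rhamnose), in six replicate transformations. Pooled colonies were amplicon-sequenced on Illumina HiSeq 2500. DiMSum fitness is the error-weighted combination of wild-type-normalised replicate fold changes, kanamycin versus none.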

Row | Sequence | self-splicing fitness (ln) (30 °C) | self-splicing fitness (ln) (37 °C)
1 | AGACAGCAAUAUUACGCGGA | -2.87 ± 0.14 | -1.58 ± 0.12
2 | UAAUAGCAAUAUUACGGAUA | -1.97 ± 0.17 | -1.83 ± 0.2
3 | GUCGAGCAAUAUUACGGCGA | -3.05 ± 0.21 | -1.9 ± 0.25
4 | AGUGAGCAAUAUUACGAUAG | -2.34 ± 0.17 | -2.18 ± 0.34
5 | GCUGAGCAAUAUUACGCUGU |  | -2.51 ± 0.49
6 | CACUAGCAAUAUUACGGUAA | -2.52 ± 0.16 | -0.923 ± 0.11
7 | ACCUAGCAAUAUUACGUGGA | -2.36 ± 0.093 | -1.62 ± 0.084
8 | UAUUAGCAAUAUUACGUUCG | -1.13 ± 0.16 | -0.121 ± 0.18
9 | AUACAGCAAUAUUACGCCGG | -2.34 ± 0.17 | -1.38 ± 0.21
10 | GGGUAGCAAUAUUACGAAAC | -1.26 ± 0.32 | -0.11 ± 0.4
11 | AACUAGCAAUAUUACGAGAG | -3.61 ± 0.12 | -1.84 ± 0.11
12 | AUGGAGCAAUAUUACGUAGU | -2.7 ± 0.11 | -1.62 ± 0.097
13 | CGCGAGCAAUAUUACGCGCA |  | -2.91 ± 0.2
14 | CACAAGCAAUAUUACGCCAG | -1 ± 0.08 | -1.09 ± 0.11
15 | AAUCAGCAAUAUUACGUGCG | -0.392 ± 0.058 | -0.216 ± 0.08
16 | UGAAAGCAAUAUUACGAAGU | -3.76 ± 0.21 | -2.96 ± 0.23
17 | AUCCAGCAAUAUUACGUAAA | -1.3 ± 0.064 | -0.843 ± 0.093
18 | CAUGAGCAAUAUUACGAUUC | -3.18 ± 0.21 | -1.66 ± 0.19
19 | CAUCAGCAAUAUUACGGGGG | -1.94 ± 0.084 | -0.816 ± 0.1
20 | CCGAAGCAAUAUUACGUGGC | -3.27 ± 0.19 | -2.61 ± 0.34
21 | CCUCAGCAAUAUUACGCGAU | -4.95 ± 0.38 | -2.63 ± 0.22
22 | GGGAAGCAAUAUUACGGUGA | -1.76 ± 0.3 | -0.447 ± 0.18

Row | Sequence | self-splicing fitness (ln) (30 °C) | self-splicing fitness (ln) (37 °C)
23 | GAUUAGCAAUAUUACGCACA | -0.341 ± 0.17 | -0.721 ± 0.12
24 | AAUAAGCAAUAUUACGGACA | -0.911 ± 0.13 | 0.0108 ± 0.14
25 | CUGGAGCAAUAUUACGGGCC |  | -2.19 ± 0.31
26 | ACUAAGCAAUAUUACGGAUA | -2.38 ± 0.16 | -2.54 ± 0.2
27 | UGUCAGCAAUAUUACGACAU | -3.964 ± 0.028 | -2.58 ± 0.04
28 | AGUCAGCAAUAUUACGUGGA | -2.73 ± 0.19 | -2.41 ± 0.15
29 | AUACAGCAAUAUUACGAACC | -2.11 ± 0.15 | -0.458 ± 0.16
30 | UUCAAGCAAUAUUACGGCCU | -2.42 ± 0.17 | -0.267 ± 0.15
31 | CCCUAGCAAUAUUACGAGAA | -2.85 ± 0.45 | -2.67 ± 0.44
32 | ACAAAGCAAUAUUACGCGCA | -0.72 ± 0.067 | -0.569 ± 0.078
33 | GGAUAGCAAUAUUACGCUAA | -2.07 ± 0.16 | -1.03 ± 0.22
34 | AGAGAGCAAUAUUACGGUCG | -3.33 ± 0.35 | -1.63 ± 0.35
35 | UUUCAGCAAUAUUACGAAAA | -1.02 ± 0.15 | -0.793 ± 0.15
36 | UUCCAGCAAUAUUACGAUAG | -2.58 ± 0.18 | -1.4 ± 0.16
37 | AAUAAGCAAUAUUACGAUCG | -1 ± 0.081 | -0.0681 ± 0.096
38 | CGAAAGCAAUAUUACGGCGC | -1.14 ± 0.13 | -0.908 ± 0.15
39 | UAAAAGCAAUAUUACGUUAC | -3.71 ± 0.22 | -2.78 ± 0.21
40 | UCGAAGCAAUAUUACGAUUG | -2.47 ± 0.27 | -1.73 ± 0.23
41 | UUCUAGCAAUAUUACGACCA | -0.559 ± 0.15 | -0.269 ± 0.14
42 | CUAAAGCAAUAUUACGUCCG | 0.264 ± 0.12 | 0.68 ± 0.16
43 | UACCAGCAAUAUUACGUUAA | -1.36 ± 0.073 | -0.903 ± 0.081
